B1: 25A (antibody, human IgG1, V domains shown)
VH: QVQLVQSGAEVKKPGASVKVSCKASGYTFDVYGISWVRQAPGQGLEWMGWIAPYNGNTNYAQKLQGRVTMTTDTSTSTAYMELRSLRSDDTAVYYCARDAGTYSPFGYGMDVWGQGTTVTVSS
VL: DIQMTQSPSTLSASVGDRVTITCRASQSISSWLAWYQQKPGKAPKLLIYKASSLESGVPSRFSGSGSGTEFTLTISSLQPDDFATYYCQQFQSLPPFTFGGGTKVEIK
notes: Human IgG1; also called antibody designated 25A; Antibody Clone 25A
B2: 25A-vc-MMAE (antibody, IgG1, V domains shown)
VH: QVQLVQSGAEVKKPGASVKVSCKASGYTFDVYGISWVRQAPGQGLEWMGWIAPYNGNTNYAQKLQGRVTMTTDTSTSTAYMELRSLRSDDTAVYYCARDAGTYSPFGYGMDVWGQGTTVTVSS
VL: DIQMTQSPSTLSASVGDRVTITCRASQSISSWLAWYQQKPGKAPKLLIYKASSLESGVPSRFSGSGSGTEFTLTISSLQPDDFATYYCQQFQSLPPFTFGGGTKVEIK
modifications: MC-vc-PAB-MMAE on cysteines of the partially reduced antibody (chain and positions not stated), DAR 3-4
notes: Antibody-drug conjugate (primary ADC) of the IgG1 antibody; also called 25A ADC; 25A conjugated to MC-vc-PAB-MMAE
B3: anti-TF antibody 25G1 conjugated to MC-vc-PAB-MMAE (antibody, IgG1, V domains shown)
VH: QVQLVQSGAEVKKPGASVKVSCKASGYTFRSYGISWVRQAPGQGLEWMGWVAPYSGNTNYAQKLQGRVTMTTDTSTSTAYMELRSLRSDDTAVYYCARDAGTYSPYGYGMDVWGQGTTVTVSS
VL: DIQMTQSPSTLSASVGDRVTITCRASHSIDSWLAWYQQKPGKAPKLLIYKASYLESGVPSRFSGSGSGTEFTLTISSLQPDDFATYYCQLFQSLPPFTFGGGTKVEIK
modifications: MC-vc-PAB-MMAE on cysteines of the partially reduced antibody (chain and positions not stated), DAR 3-4
notes: Antibody-drug conjugate (primary ADC) of the IgG1 antibody; also called 25G1 ADC
B4: 25A5-T (antibody, human IgG1, V domains shown)
VH: QVQLVQSGAEVKKPGASVKVSCKASGYTFDAYGISWVRQAPGQGLEWMGWIAPYSGNTNYAQKLQGRVTMTTDTSTSTAYMELRSLRSDDTAVYYCARDAGTYSPFGYGMDVWGQGTTVTVSS
VL: DIQMTQSPSTLSASVGDRVTITCRASESISNWLAWYQQKPGKAPKLLIYKAYSLEYGVPSRFSGSGSGTEFTLTISSLQPDDFATYYCQQFQKLPPFTFGGGTKVEIK
notes: Human IgG1; also called antibody designated 25A5-T
B5: 25A3-vc-MMAE (antibody, IgG1, V domains shown)
VH: QVQLVQSGAEVKKPGASVKVSCKASGYTFDVYGISWVRQAPGQGLEWMGWIAPYSGNTNYAQKLQGRVTMTTDTSTSTAYMELRSLRSDDTAVYYCARDAGTYSPFGYGMDVWGQGTTVTVSS
VL: DIQMTQSPSTLSASVGDRVTITCQASQSINNWLAWYQQKPGKAPKLLIYKAYNLESGVPSRFSGSGSGTEFTLTISSLQPDDFATYYCQLFQSLPPFTFGGGTKVEIK
modifications: MC-vc-PAB-MMAE on cysteines of the partially reduced antibody (chain and positions not stated), DAR 3-4
notes: Antibody-drug conjugate (primary ADC) of the IgG1 antibody; also called 25A3 ADC; 25A3 MMAE ADC
B6: anti-TF antibody 54E conjugated to MC-vc-PAB-MMAE (antibody, IgG1, V domains shown)
VH: QVQLVQSGAEVKKPGASVKVSCKASGYTFANYYMHWVRQAPGQGLEWMGIINPSGGITVYAQKFQGRVTMTRDTSTSTVYMELSSLRSEDTAVYYCARGGSKVAALAFDIWGQGTMVTVSS
VL: DIQMTQSPSSLSASVGDRVTITCQASQDISNSLNWYQQKPGKAPKLLIYDASNLETGVPSRFSGSRSGTDFTFTISSLQPEDIATYYCQQYNFHPLTFGGGTKVEIK
modifications: MC-vc-PAB-MMAE on cysteines of the partially reduced antibody (chain and positions not stated), DAR 3-4
notes: Antibody-drug conjugate (primary ADC) of the IgG1 antibody; also called 54E ADC

Assays:
human Tissue Factor (TF) [1] = target: T1, human Tissue Factor (TF) (human, UniProt P13726 33-295); test: flow cytometry, MDA-MB-231 cells; competitor 20 nM FVII-Fc-Alexa488; antibody at 250 nM
T1 construct: also called hTF; CD142
Procedure: (§1) After another 1 hr incubation on ice, cells were washed, stained with a viability dye, and analyzed by flow cytometry. The Alexa488 fluorescence data from viable cells was summarized using median fluorescence intensity.

human Tissue Factor (TF) [2] = target: T1, human Tissue Factor (TF); test: cell-based or functional assay
human Tissue Factor (TF) [3] = target: T1, human Tissue Factor (TF); test: flow cytometry, A431 cells; antibody at 100 nM; competitor 20 nM 43Ea-Alexa488
Procedure: as §1

human Tissue Factor (TF) [4] = target: T1, human Tissue Factor (TF); test: cell-based or functional assay; remark: listed apart in the source
human Tissue Factor (TF) [5] = target: T1, human Tissue Factor (TF); test: flow cytometry, MDA-MB-231 cells; competitor 20 nM FVII-Fc-Alexa488; antibody at 9.25 nM
Procedure: as §1

human Tissue Factor (TF) [6] = target: T1, human Tissue Factor (TF); test: flow cytometry, A431 cells; antibody at 100 nM; competitor 20 nM 25A-Alexa488
Procedure: as §1

human Tissue Factor (TF) [7] = target: T1, human Tissue Factor (TF); test: flow cytometry, MDA-MB-231 cells; competitor 20 nM FVII-Fc-Alexa488; antibody at 83 nM
Procedure: as §1

[8] = target: T2, human Tissue Factor (hTF) (human, UniProt P13726 33-295); test: cell-based or functional assay
[9] = target: T3, human Tissue Factor on human TF-positive cells (human, UniProt P13726 33-295); test: flow cytometry, titration of the MC-vc-PAB-MMAE ADC on HCT-116 cells (human TF), 4-parameter fit of MFI
T3 construct: also called hTF; CD142

[10] = target: T2, human Tissue Factor (hTF); test: cell-based or functional assay; remark: listed apart in the source
[11] = target: T4, rTF (rat TF) construct on HEK293 cells (rat, UniProt P42533 29-252); test: flow cytometry (live cell staining), antibody titration 1:3 from 250 nM on HEK293 cells transfected with rTF
T4 construct: not shown: transmembrane/cytoplasmic anchor of the cell-surface construct
T4 sequence (P42533 29-252 limits assumed): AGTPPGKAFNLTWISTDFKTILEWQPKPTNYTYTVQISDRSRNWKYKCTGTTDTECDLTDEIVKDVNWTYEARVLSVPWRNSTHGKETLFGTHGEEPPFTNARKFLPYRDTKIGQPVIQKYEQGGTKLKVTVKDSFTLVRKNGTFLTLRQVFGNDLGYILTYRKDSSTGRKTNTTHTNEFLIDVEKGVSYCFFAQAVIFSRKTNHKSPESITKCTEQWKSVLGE

| Binder | IC50, cell viability of A431 cells, Primary ADC, Continuous (FIG. 20A) [8] [pM] | IC50, cell viability of HPAF-II cells, Primary ADC, Continuous (FIG. 22E) [8] [pM] | IC50, cell viability of MDA-MB-231 cells, Primary ADC, Continuous (FIG. 22D) [8] [pM] | EC50 [9] [pM] | IC50, cell viability of A431 cells, Primary ADC, 4 hr, followed by washout (FIG. 20B) [10] [pM] | IC50, cell viability of A431 cells, Primary ADC, 4 hr, followed by washout, absence of FVIIa (FIG. 21A) [10] [pM] | further results |
| --- | --- | --- | --- | --- | --- | --- | --- |
| B1 |  |  |  |  |  |  | % FVIIa (human Tissue Factor (TF) [1]): 98%; % IL8 at 2.56 nM antibody (human Tissue Factor (TF) [2]): 43%; % IL8 at 6.4 nM antibody (human Tissue Factor (TF) [2]): 11%; % IL8 at 16 nM antibody (human Tissue Factor (TF) [2]): 10%; % IL8 at 40 nM antibody (human Tissue Factor (TF) [2]): 8%; % IL8 at 100 nM antibody (human Tissue Factor (TF) [2]): 9%; % 43Ea binding (human Tissue Factor (TF) [3]): 1%; % GM-CSF at 2.56 nM antibody (human Tissue Factor (TF) [4]): 57%; % GM-CSF at 6.4 nM antibody (human Tissue Factor (TF) [4]): 24%; % GM-CSF at 16 nM antibody (human Tissue Factor (TF) [4]): 22%; % GM-CSF at 40 nM antibody (human Tissue Factor (TF) [4]): 19%; % GM-CSF at 100 nM antibody (human Tissue Factor (TF) [4]): 22%; % FVIIa (human Tissue Factor (TF) [5]): 100%; % 25A binding (human Tissue Factor (TF) [6]): 3%; % FVIIa (human Tissue Factor (TF) [7]): 97% |
| B2 | 90 | 60 | 140 | 340 | 350 | 180 |  |
| B3 | 60 | 40 | 90 | 170 | 190 | 100 |  |
| B4 |  |  |  |  |  |  | binding result [11]: no binding (tested: 250 nM) |
| B5 | 70 | 50 | 110 | 170 | 190 | 120 |  |
| B6 | 70 |  |  | 330 | 260 | 200 |  |
